Laboratory results reported in patent US20120028880A1, “VEGFR-1/NRP-1 TARGETING PEPTIDES” (priority 2007, published 2012).
Square brackets hold non-standard residues; d marks the D form. Ends that are not written are not given here.

Key:
NRP-1 = assay: competition of CPQPRPLC phage binding to immobilized NRP-1 by soluble peptide
VEGFR-1 = assay: competition of CPQPRPLC phage binding to immobilized VEGFR-1 by soluble peptide
VEGFR-1, sequence (P17948 27-758): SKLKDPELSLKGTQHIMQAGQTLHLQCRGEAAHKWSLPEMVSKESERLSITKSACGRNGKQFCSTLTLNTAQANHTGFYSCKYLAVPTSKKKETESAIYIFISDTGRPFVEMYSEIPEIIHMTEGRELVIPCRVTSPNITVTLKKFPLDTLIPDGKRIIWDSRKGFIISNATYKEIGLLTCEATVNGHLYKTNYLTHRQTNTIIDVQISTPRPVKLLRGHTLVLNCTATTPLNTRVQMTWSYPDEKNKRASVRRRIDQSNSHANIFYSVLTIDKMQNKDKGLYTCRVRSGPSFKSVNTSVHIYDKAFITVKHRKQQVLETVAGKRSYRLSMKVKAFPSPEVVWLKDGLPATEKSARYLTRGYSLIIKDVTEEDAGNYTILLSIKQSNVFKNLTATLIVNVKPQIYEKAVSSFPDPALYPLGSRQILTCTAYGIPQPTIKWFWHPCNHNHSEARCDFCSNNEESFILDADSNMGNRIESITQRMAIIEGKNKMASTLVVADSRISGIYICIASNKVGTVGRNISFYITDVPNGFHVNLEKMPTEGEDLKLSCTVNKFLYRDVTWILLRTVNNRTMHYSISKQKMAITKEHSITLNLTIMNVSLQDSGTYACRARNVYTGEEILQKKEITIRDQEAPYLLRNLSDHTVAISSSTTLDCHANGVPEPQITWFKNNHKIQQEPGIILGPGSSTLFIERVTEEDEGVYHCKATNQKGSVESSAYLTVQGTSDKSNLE

NRP-1, sequence (O14786 22-856): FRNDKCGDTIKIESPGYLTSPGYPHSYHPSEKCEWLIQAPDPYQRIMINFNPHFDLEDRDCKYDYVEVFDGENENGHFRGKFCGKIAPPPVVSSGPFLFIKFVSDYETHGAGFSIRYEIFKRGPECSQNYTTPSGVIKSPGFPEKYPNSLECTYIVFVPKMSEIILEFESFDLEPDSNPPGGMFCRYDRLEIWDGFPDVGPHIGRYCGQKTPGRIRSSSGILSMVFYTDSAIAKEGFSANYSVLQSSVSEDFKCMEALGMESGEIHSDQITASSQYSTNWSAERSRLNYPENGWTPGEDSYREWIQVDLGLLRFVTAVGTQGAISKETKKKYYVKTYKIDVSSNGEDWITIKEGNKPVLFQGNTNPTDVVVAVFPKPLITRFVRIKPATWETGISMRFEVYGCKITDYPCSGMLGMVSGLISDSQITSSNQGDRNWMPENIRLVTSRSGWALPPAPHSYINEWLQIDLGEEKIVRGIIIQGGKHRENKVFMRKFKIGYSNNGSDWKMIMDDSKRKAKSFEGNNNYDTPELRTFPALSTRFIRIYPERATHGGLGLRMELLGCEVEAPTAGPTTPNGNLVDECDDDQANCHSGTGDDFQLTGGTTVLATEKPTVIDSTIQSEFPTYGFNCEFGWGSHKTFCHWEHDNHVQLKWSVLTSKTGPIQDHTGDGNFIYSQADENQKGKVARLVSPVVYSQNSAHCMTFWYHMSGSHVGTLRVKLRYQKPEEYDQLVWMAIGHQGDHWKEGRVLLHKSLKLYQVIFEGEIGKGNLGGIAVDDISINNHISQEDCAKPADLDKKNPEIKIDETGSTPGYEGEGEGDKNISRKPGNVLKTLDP

[dL]-[dP]-[dR] showed an IC50 (NRP-1) of 1 to 10 pM and an IC50 (VEGFR-1) of 1 to 10 pM.
